The record followed here is paper PMC7554688, “Blocking of the IL-33/ST2 Signaling Axis by a Single-Chain Antibody Variable Fragment (scFv) Specific to IL-33 with a Defined Epitope” (International Journal of Molecular Sciences, 2020).

Where a chain is given by its changes, count along the chain named.

For assay [1], the target named is T1, ST2-Fc fusion protein (ectodomain of ST2, residues 19-321, and Fc from human IgG) (UniProt Q01638 19-321).
T1 construct: Suppressor of tumorigenicity 2 (ST2) / interleukin 1 receptor-like 1 (IL1RL1), ectodomain, residues 19-321; Synthesised gene in the pSF vector; also called sST2; IL1RL1; source: Expi293F, transfected, purified from supernatant (protein A agarose)
T1 sequence (looked up): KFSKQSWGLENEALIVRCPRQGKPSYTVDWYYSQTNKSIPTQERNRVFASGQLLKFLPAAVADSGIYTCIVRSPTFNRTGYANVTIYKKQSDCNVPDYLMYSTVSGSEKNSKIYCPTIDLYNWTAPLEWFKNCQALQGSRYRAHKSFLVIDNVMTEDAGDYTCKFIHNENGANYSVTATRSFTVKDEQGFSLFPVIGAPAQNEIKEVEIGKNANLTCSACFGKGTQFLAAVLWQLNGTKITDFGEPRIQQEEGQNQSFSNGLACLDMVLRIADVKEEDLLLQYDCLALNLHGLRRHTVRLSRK
Nature of the assay: pull-down; 4 uM GST-IL-33 on Glutathione Sepharose 4B, then 4 uM ST2-Fc, then C2_2E12 (0.4, 4, 40, 400 uM), 30 min at 4 C each step; 50 mM Tris-HCl pH 7.5, 150 mM NaCl; immunoblot (anti-ST2, anti-GST, anti-His6), bands quantified with ImageJ. The following applies: both partners purified.

The target in assay [2] is T2, GST-IL-33 (mature form of interleukin 33, residues 112-270) (human, UniProt O95760).
T2 construct: Interleukin-33, human, mature form / IL-1-like cytokine domain, residues 112-270; Synthesised gene in the parallel GST-2 vector; also called GST-IL-33 WT; GST-IL-33_(112)-270; source: E. coli BL21 (DE3), purified (Glutathione Sepharose 4B); not shown: GST, N-terminal, kept
Nature of the assay: ELISA; E. coli cell lysates containing overexpressed His6-tagged scFvs against GST-IL-33; the text says ELISA, the legend 'kinetic analysis'; the methods tell of lysates only for BLI (BLItz; lysate scFv on Ni-NTA biosensors, GST-IL-33 at 2, 1, 0.5 and 0.25 uM, Kd = koff/kon). Conditions: one partner purified. (An ELISA detects its analyte on a solid surface through an enzyme-linked reagent.)

Assay [3] concerns the target T2, GST-IL-33 (mature form of interleukin …). Nature of the assay: pull-down; 4 uM GST-IL-33 on Glutathione Sepharose 4B, then 4 uM ST2-Fc, then C2_2E12 (0.4, 4, 40, 400 uM), 30 min at 4 C each step; 50 mM Tris-HCl pH 7.5, 150 mM NaCl; immunoblot (anti-ST2, anti-GST, anti-His6), bands quantified with ImageJ. Conditions: both partners purified. In general terms: Immunoblotting shows a protein as a band on a membrane.

The target is the same in assay [4]. Nature of the assay: ELISA; GST-IL-33 coated on the plate; serial dilutions of purified scFv (about 8 ng/mL to 0.8 mg/mL), ambient temperature 1 h, PBST; anti-HA-HRP detection, OD450; repeated three times. The following applies: both partners purified.

B1: GST-IL-33 (mature form of interleukin 33, residues 112-270) (domain or fragment, human, UniProt O95760 112-270, looked up)
chain: SITGISPITEYLASLSTYNDQSITFALEDESYEIYVEDLKKDEKKDKVLLSYYESQHPSNESGDGVDGKMLMVTLSPTKDFWLHANNKEHSVELHKCEKPLPDQAFFVLHNMHSNCVSFECKTDPGVFIGVKDNHLALIKVDSSENLCTENILFKLSET
notes: Interleukin-33, human, mature form / IL-1-like cytokine domain, residues 112-270; Synthesised gene in the parallel GST-2 vector; also called GST-IL-33 WT; GST-IL-33_(112)-270; source: E. coli BL21 (DE3), purified (Glutathione Sepharose 4B); not shown: GST, N-terminal, kept
Turning to B1, the binding result in assay [1] is recorded as “binds”.

B2: C2_2E1 (scFv, V domains shown)
VH: EVQLLESGGGLVQPGGSLRLSCAASGFTFSSYYMSWVRQAPGRGLEWVSAISPGSSNKYYADSVKGRFTISRDNSKNTLYLQMNSLRAEDTAVYYCARMTSSFDYWGQGTLVTVSS
VL: QSVLTQPPSASGTPGQRVTISCSGSSSNIGNNDVSWYQQLPGTAPKLLIYSDSQRPSGVPDRFSGSKSGTSASLAISGLRSEDEADYYCGSWDYSLSAYVFGGGTKLTVL
notes: selected from a synthetic human scFv library by phage display; also called anti-IL-33 scFv clone C2_2E1; source: E. coli BL21 (DE3), in cell lysate; purified (Ni-NTA, SEC)
As for B2, in assay [2], binding was put at a Kd of 35 nM.

B3: C2_1D5 (scFv, V domains shown)
VH: B2 VH with R43K, M99L, T100L, S102A
VL: B2 VL with N31S, Q54N, S91A, Y94S, A98G
notes: selected from a synthetic human scFv library by phage display; also called anti-IL-33 scFv clone C2_1D5; source: E. coli BL21 (DE3), in cell lysate; purified (Ni-NTA, SEC)
In turn, B3 yielded a Kd in assay [2] of 36 nM.

B4: C2_2H5 (scFv, V domains shown)
VH: B2 VH with R43K, R67Q, R98K, M99L, T100S, S101Q
VL: B2 VL with S23T, D33G, V34I, S51D, D52N, Q54H, A85T, G90A, Y94S, A98G
notes: selected from a synthetic human scFv library by phage display; also called anti-IL-33 scFv clone C2_2H5; source: E. coli BL21 (DE3), in cell lysate; purified (Ni-NTA, SEC)
Regarding B4, binding in assay [2] was put at a Kd of 31 nM.

B5: C2_2E12 (scFv, V domains shown)
VH: B2 VH with R43K, M99L, S101L, L111P
VL: B2 VL with N31S, S51A, Q54K, G90A, Y94S
notes: selected from a synthetic human scFv library by phage display; Fab and IgG formats were made but no result is told for them; also called anti-IL-33 scFv clone C2_2E12; C2_2E12 antibody; source: E. coli BL21 (DE3), in cell lysate and purified (Ni-NTA, SEC); scFv also expressed in Expi293F, purified (Ni-NTA, SEC)
As to B5, the figures for the Kd in assay [2] and in assay [4] were 28 nM and 38 nM, respectively. In addition, in assay [3], the “IL-33:ST2 interaction left at 100-fold molar excess of C2_2E12 (ST2-Fc band relative to that with 0.4 uM C2_2E12)” value is approximately 40%.

B6: C2_2A10 (scFv, V domains shown)
VH: B2 VH with R43K, R87G, R98K, M99L, T100L, S101T, S102G
VL: B2 VL with D33A, S51D, S53N, Q54H, S91T, Y94S
notes: selected from a synthetic human scFv library by phage display; also called anti-IL-33 scFv clone C2_2A10; source: E. coli BL21 (DE3), in cell lysate; purified (Ni-NTA, SEC)
The molecule B6 came in with a Kd in assay [2] of 57 nM.

B7: C1_1E1 (scFv, V domains shown)
VH: B2 VH with R43K, R98K, M99L, S102A
VL: B2 VL with S23T, N31S, S35T, S53N, Q54K, D83E, S91A, Y94S, A98G
notes: selected from a synthetic human scFv library by phage display; also called anti-IL-33 scFv clone C1_1E1; source: E. coli BL21 (DE3), in cell lysate; purified (Ni-NTA, SEC)
Regarding B7, the Kd in assay [2] amounted to 48 nM.

The term Kd denotes the free concentration of one partner at which half of the binding sites on the other are occupied at equilibrium, for simple one-to-one binding. Lower therefore signals tighter binding.
